Drawing on article PMC6764986, this text covers Kd for 1 molecule.

The test has as its target ALFA-tagged target immobilized for SPR (TST-NEDD8-ALFA or GFP-ALFA). Put plainly: SPR; ALFA-tagged ligand (TST-NEDD8-ALFA or GFP-ALFA) coupled by EDC-NHS to HC1000m chip; NbALFA as analyte; 20 °C, 40 µL/min, PBS with 0.002% Tween-20 pH 7.4; dissociation followed for > 7 h. A general note: SPR reads the build-up and loss of mass on a sensor chip optically.

B1: NbALFA (non-tagged) (VHH)
VHH: EVQLQESGGGLVQPGGSLRLSCTASGVTISALNAMAMGWYRQAPGERRVMVAAVSERGNAMYRESVQGRFTVTRDFTNKMVSLQMDNLKPEDTAVYYCHVLEDRVDSFHDYWGQGTQVTVSS
B1 displayed a Kd of 0.026 nM.

As a reminder, the Kd is the concentration at which binding is half-saturated. A higher Kd goes with weaker binding.
